Experimental data taken from patent US8043804.

acetylated p53, P04637, sequence (P04637 whole entry, looked up): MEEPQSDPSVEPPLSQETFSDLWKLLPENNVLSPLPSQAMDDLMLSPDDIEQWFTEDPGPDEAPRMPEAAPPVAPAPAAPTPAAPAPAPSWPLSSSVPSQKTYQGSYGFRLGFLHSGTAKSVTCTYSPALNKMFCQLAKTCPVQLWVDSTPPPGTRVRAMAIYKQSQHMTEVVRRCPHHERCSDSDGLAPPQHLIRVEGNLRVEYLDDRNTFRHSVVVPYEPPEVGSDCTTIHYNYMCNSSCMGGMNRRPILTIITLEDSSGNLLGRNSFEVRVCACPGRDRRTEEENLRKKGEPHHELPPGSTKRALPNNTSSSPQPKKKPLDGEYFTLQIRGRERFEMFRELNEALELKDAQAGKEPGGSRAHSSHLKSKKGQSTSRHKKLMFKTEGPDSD

Row | Protein | in vitro deacetylation assay (acetylated tubulin) | in vitro deacetylation assay (Western blot for acetylated p53) (acetylated p53, P04637)
1 | Flag-SIRT2 (protein) MAEPDPSHPLETQAGKVQEAQDSDSDSEGGAAGGEADMDFLRNLFSQTLSLGSQKERLLDELTLEGVARYMQSERCRRVICLVGAGISTSAGIPDFRSPSTGLYDNLEKYHLPYPEAIFEISYFKKHPEPFFALAKELYPGQFKPTICHYFMRLLKDKGLLLRCYTQNIDTLERIAGLEQEDLVEAHGTFYTSHCVSASCRHEYPLSWMKEKIFSEVTPKCEDCQSLVKPDIVFFGESLPARFFSCMQSDFLKVDLLLVMGTSLQVQPFASLISKAPLSTPRLLINKEKAGQSDPFLGMIMGLGGGMDFDSKKAYRDVAWLGECDQGCLALAELLGWKKELEDLVRREHASIDAQSGAGVPNPSTSASPKKSPPPAKDEARTTEREKPQ | deacetylation of tubulin was observed when the purified SIRT2 protein was incubated with acetylated tubulin | 
2 | Flag-SIRT1 (protein) MADEAALALQPGGSPSAAGADREAASSPAGEPLRKRPRRDGPGLERSPGEPGGAAPEREVPAAARGCPGAAAAALWREAEAEAAAAGGEQEAQATAAAGEGDNGPGLQGPSREPPLADNLYDEDDDDEGEEEEEAAAAAIGYRDNLLFGDEIITNGFHSCESDEEDRASHASSSDWTPRPRIGPYTFVQQHLMIGTDPRTILKDLLPETIPPPELDDMTLWQIVINILSEPPKRKKRKDINTIEDAVKLLQECKKIIVLTGAGVSVSCGIPDFRSRDGIYARLAVDFPDLPDPQAMFDIEYFRKDPRPFFKFAKEIYPGQFQPSLCHKFIALSDKEGKLLRNYTQNIDTLEQVAGIQRIIQCHGSFATASCLICKYKVDCEAVRGDIFNQVVPRCPRCPADEPLAIMKPEIVFFGENLPEQFHRAMKYDKDEVDLLIVIGSSLKVRPVALIPSSIPHEVPQILINREPLPHLHFDVELLGDCDVIINELCHRLGGEYAKLCCNPVKLSEITEKPPRTQKELAYLSELPPTPLHVSEDSSSPERTSPPDSSVIVTLLDQAAKSNDDLDVSESKGCMEEKPQEVQTSRNVESIAEQMENPDLKNVGSSTGEKNERTSVAGTVRKCWPNRVAKEQISRRLDGNQYLFLPPNRYIFHGAEVYSDSEDDVLSSSSCGSNSDSGTCQSPSLEEPMEDESEIEEFYNGLEDEPDVPERAGGAGFGTDGDDQEAINEAISVKQEVTDMNYPSNKS |  | deacetylation of p53 was observed when the Flag-SIRT1 protein was incubated with acetylated p53
